Each block holds one binder with its values, some of them ahead of it.
Assays:
[1] = target: T1, recombinant human CD30L (human, UniProt P32971 63-234, limits assumed); test: biosensor: antibody captured, CD30L bound, competitor rhCD30 added; signal of CD30 association (over 0.15 = non-blocking)
T1 construct: also called rhCD30L; TNFSF8
T1 sequence (looked up): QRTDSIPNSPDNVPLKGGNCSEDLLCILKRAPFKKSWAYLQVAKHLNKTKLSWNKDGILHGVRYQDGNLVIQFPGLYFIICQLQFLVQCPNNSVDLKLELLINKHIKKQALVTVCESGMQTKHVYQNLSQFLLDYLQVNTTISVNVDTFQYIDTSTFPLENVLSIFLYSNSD
Protocol: Briefly, individual anti-human biosensors were loaded with purified IgG (normalized to 10 μg/mL) and a baseline was measured for each biosensor. Biosensors were saturated with biotin and with polyclonal huIgG and a baseline was measured. […] Biosensors were moved to buffer wells to measure the dissociation rate.

[2] = target: T2, mouse CD30L (mouse, UniProt P32972 68-239, limits assumed); test: screening of a rat campaign with mouse CD30L antigen
T2 construct: also called rmCD30L
T2 sequence (looked up): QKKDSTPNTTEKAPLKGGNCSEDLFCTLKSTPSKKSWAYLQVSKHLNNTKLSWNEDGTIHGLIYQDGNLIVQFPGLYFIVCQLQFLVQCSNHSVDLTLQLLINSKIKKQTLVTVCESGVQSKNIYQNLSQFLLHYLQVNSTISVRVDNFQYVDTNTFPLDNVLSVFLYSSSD

[3] = target: T3, human CD30L expressed on cells (B16-huCD30L; HEK293 cells over-expressing TNFSF8) (human, UniProt P32971 1-234); test: cell-based or functional assay
T3 sequence: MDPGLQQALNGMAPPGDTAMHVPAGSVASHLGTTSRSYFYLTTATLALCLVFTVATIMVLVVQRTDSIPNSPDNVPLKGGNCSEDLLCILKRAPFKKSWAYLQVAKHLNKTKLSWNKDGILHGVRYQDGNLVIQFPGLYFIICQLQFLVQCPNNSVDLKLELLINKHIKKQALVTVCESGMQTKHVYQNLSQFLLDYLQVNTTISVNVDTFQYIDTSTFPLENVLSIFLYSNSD

[4] = target: T4, cynomolgus CD30L expressed on HEK293 cells (cynomolgus, UniProt A0A7N9CVX7 1-234); test: cell-based or functional assay
T4 sequence: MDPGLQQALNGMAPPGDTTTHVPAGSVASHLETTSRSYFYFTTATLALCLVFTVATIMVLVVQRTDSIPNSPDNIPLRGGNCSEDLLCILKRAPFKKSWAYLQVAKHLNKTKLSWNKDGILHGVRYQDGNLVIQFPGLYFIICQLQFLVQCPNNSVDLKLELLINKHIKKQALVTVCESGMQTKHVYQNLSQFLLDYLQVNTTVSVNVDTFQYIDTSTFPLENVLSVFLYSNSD

[5] = target: T5, human CD30L expressed on cells (human, UniProt P32971 1-234); test: flow cytometry, labelled antibody on PMA/ionomycin-stimulated primary lymphocytes, Patient 1 (CD, #04-021)
T5 construct: whole, on cells; The assay field of each row tells which cells carried it; also called huCD30L; B16-huCD30L cells
T5 sequence (looked up): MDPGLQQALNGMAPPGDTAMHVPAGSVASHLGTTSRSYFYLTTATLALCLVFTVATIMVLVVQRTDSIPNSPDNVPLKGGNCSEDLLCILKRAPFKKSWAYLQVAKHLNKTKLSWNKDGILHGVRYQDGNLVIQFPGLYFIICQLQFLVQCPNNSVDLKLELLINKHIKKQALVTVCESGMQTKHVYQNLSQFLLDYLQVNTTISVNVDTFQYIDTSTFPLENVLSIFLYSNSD
Description: (§1) Peripheral blood mononuclear cells (PBMCs) were isolated from freshly collected whole blood from Ulcerative Colitis (UC) and Crohn's Disease (CD) patients, by conventional density gradient centrifugation. […] After washing to remove unbound antibodies, the cells were fixed in a paraformaldehyde solution and analyzed by flow cytometry to quantify cell surface antibody binding.

[6] = target: T5, human CD30L expressed on cells; test: flow cytometry, labelled antibody on PMA/ionomycin-stimulated primary lymphocytes, Patient 2 (UC, #03-041)
Description: as §1

[7] = target: T5, human CD30L expressed on cells; test: flow cytometry, labelled antibody on PMA/ionomycin-stimulated primary lymphocytes, Patient 3 (UC, #02-180)
Description: as §1

[8] = target: T5, human CD30L expressed on cells; test: flow cytometry, labelled antibody on PMA/ionomycin-stimulated primary lymphocytes, Patient 4 (CD, #01-051)
Description: as §1

[9] = target: T6, recombinant human CD30L protein (human, UniProt P32971 63-234, limits assumed); test: KinExA, Fab in solution; reference: Fab of Ref1
T6 construct: Used for ELISA, BLI, Carterra, KinExA; also called rhCD30L; purified human CD30L
T6 sequence (looked up): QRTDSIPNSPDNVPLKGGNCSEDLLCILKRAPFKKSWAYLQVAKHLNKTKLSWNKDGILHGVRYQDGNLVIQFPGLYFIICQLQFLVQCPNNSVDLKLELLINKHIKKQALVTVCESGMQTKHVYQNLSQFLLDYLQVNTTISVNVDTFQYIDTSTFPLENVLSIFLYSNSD
Description: A KD analysis requires immobilization of one interaction partner to a solid phase which is then used as a probe to capture the other interaction partner, the constant binding partner (Fab). […] The solutions are then briefly exposed to the solid phase and a portion of free Fab is captured. The captured Fab is then labeled with a fluorescent secondary molecule. The short contact time with the solid phase is less than the time needed for dissociation of the pre-formed complex in solution, thus competition between the solution and the solid phase titrated binding partner is kinetically excluded.

[10] = target: T3, human CD30L expressed on cells …; test: flow cytometry, blocking of recombinant CD30-Fc binding to CD30L-expressing cells; reference Ref1
[11] = target: T4, cynomolgus CD30L expressed on HEK293 …; test: as above

rhCD30L:rhCD30 Blocking [1]: 0.0522 relative units
B2: anti-CD30L antibody clone 65 (antibody, V domains shown)
VH: EVQLVESGGGLVQPGGSLKLSCAASGFTFSNYAMTWVRQAPGKGLEWVSAISGYGGSTYYAASVKGRFTISRDNSKNTLFLQMNSLRAEDTAVYYCAKDHDYYAFDYWGQGTLVPVSS
VL: not shown
notes: purified recombinant IgG, humanized mouse strain #1; also called Clone ID 65

EC50 [5]: 2.4 nM
EC50 [6]: 1.55 nM
EC50 [7]: 1.71 nM
EC50 [8]: 1.72 nM
B5: Clone 2, fluorescently labeled (format not stated in Table 7) (antibody, V domains shown)
VH: EVQLVESGGGLVQPGRSLRLSCAASGFNFDDYAMHWVRQAPGKGLEWVSGISWRSGNIGYAGSVKGRFTISRDNAKNSLYLQMNSLRPEDSALYYCAKDKGIGFNWNYEGFDYWGQGTLVTVSS
VL: DIQMTQSPSSLSASVGDRVTITCRASQGISNHLAWFQQKPGKAPKSLIYAASSLQSGVPSKFSGSGSGTDFTLTISSLQPEDFATYYCQQYVTYPLTFGGGTKVEIK
modifications: fluorescent label (site not stated)
notes: The variable domains are those of parental clone 2

fold better IC50 than Ref1 [10]: 2.74 fold
fold better IC50 than Ref1 [11]: 2.13 fold
B7: anti-CD30L antibody clone 2 germlined (antibody, V domains shown)
VH: EVQLVESGGGLVQPGRSLRLSCAASGFNFDDYAMHWVRQAPGKGLEWVSGISWRSGNIGYADSVKGRFTISRDNAKNSLYLQMNSLRAEDTALYYCAKDKGIGFNWNYEGFDYWGQGTLVTVSS
VL: DIQMTQSPSSLSASVGDRVTITCRASQGISNHLAWFQQKPGKAPKSLIYAASSLQSGVPSRFSGSGSGTDFTLTISSLQPEDFATYYCQQYVTYPLTFGGGTKVEIK
notes: also called germlined clone 2

Further lines, the binder ahead of its results:

B1: anti-CD30L antibody clone 64 (antibody, V domains shown)
VH: EVQLVESGGGLVQPGGSLRLSCAASGFTFSNYAMTWVRQAPGKGLEWVSAISGFGGSTYYADSVKGRFTISRDNSKNTLYLQMNSLRAEDTAVYYCAKDHDYYAFDYWGQGTLVTVSS
VL: not shown
notes: purified recombinant IgG, humanized mouse strain #1; also called Clone ID 64
rhCD30L:rhCD30 Blocking [1]: 0.0633 relative units

B3: clone 111, function blocking rat anti-mouse CD30L antibody (antibody, mouse IgG2a, V domains shown)
VH: EVKLQQSGDELVRPGASVKMSCKASGYTFTDYAMHWVKQSPGQGLEWIGSIIPLIDTTSYNQKFKGKATLTADKSSNTAYMELSRLTSEDSAVYYCARLGSRYLEGFDYWGQGVMVTVSS
VL: DIQMTQSPSSMSASLGDTVTINCLASQDIGNYLSWYQQKPGKSPKLMIYGATNLEDGVPSRFSGSGSGSDYSLTINSLGYDDEGIYHCHQYYEYPLTFGSGTKLEIK
notes: Rat antibody as found in the screen
binding result [2]: binds

B4: anti-CD30L antibody Clone 2 (parental) (antibody, V domains shown)
VH: EVQLVESGGGLVQPGRSLRLSCAASGFNFDDYAMHWVRQAPGKGLEWVSGISWRSGNIGYAGSVKGRFTISRDNAKNSLYLQMNSLRPEDSALYYCAKDKGIGFNWNYEGFDYWGQGTLVTVSS
VL: DIQMTQSPSSLSASVGDRVTITCRASQGISNHLAWFQQKPGKAPKSLIYAASSLQSGVPSKFSGSGSGTDFTLTISSLQPEDFATYYCQQYVTYPLTFGGGTKVEIK
fold better IC50 than Ref1, IL-8 release dual cell assay [3]: 2 fold
fold better IC50 than Ref1, IL-8 release dual cell assay [4]: 2.6 fold

B6: Fab of anti-CD30L clone 2 germlined (Fab, V domains shown)
VH: EVQLVESGGGLVQPGRSLRLSCAASGFNFDDYAMHWVRQAPGKGLEWVSGISWRSGNIGYADSVKGRFTISRDNAKNSLYLQMNSLRAEDTALYYCAKDKGIGFNWNYEGFDYWGQGTLVTVSS
VL: DIQMTQSPSSLSASVGDRVTITCRASQGISNHLAWFQQKPGKAPKSLIYAASSLQSGVPSRFSGSGSGTDFTLTISSLQPEDFATYYCQQYVTYPLTFGGGTKVEIK
notes: Fab; also called germlined-clone-2 Fab; germlined-clone-2-Fab
fold KD against the reference 1 anti-CD30L [9]: 4.2 fold

B8: Clone 1, fluorescently labeled (format not stated in Table 7) (antibody, V domains shown)
VH: QVQLQESGPGLVKPSETLSLTCTVSGGSISGYYWSWIRQPPVKGLEWIGYIFYSGYTKYNPSLKSRVTISVDTSKNQFSLKLSSVTAADTAVYYCARDRWDFDYWGQGALVTVSS
VL: AIQMTQSPSYLSASVGDRVTIACRASQGIRNNLGWYQQKPGKAPKLLIYAESSLQSGVPSRFSGSGSGTDFTLTISSLQPEDFATYYCLQDFNYPYTFGQGTKLEIK
modifications: fluorescent label (site not stated)
notes: The variable domains are those of parental clone 1
EC50 [5]: 7.45 nM
EC50 [6]: 5.43 nM
EC50 [7]: 5.57 nM
EC50 [8]: 4.53 nM

Source: patent publication US20250340660A1 (published 2025)
